Experimental data: patent US20140056920A1 (Sanofi, published 2014)

Biological target: T1, mouse IL-4Rα (mouse, UniProt P16382 26-233, limits assumed)
T1 construct: also called mouse IL-4Rα protein; mIL-4Rα
T1 sequence (looked up): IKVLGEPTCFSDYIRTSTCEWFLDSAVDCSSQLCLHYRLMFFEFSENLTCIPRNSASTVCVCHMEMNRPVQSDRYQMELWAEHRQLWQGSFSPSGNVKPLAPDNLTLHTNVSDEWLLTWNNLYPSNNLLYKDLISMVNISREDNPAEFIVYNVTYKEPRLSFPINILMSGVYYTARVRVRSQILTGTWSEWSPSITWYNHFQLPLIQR
Assay: not described (stated in Materials and Methods of Example 4)

- binding result: no binding
B1: mAb1 (human anti-IL-4R antibody H1H098-b) (antibody, V domains shown)
VH: EVQLVESGGGLEQPGGSLRLSCAGSGFTFRDYAMTWVRQAPGKGLEWVSSISGSGGNTYYADSVKGRFTISRDNSKNTLYLQMNSLRAEDTAVYYCAKDRLSITIRPRYYGLDVWGQGTTVTVS
VL: DIVMTQSPLSLPVTPGEPASISCRSSQSLLYSIGYNYLDWYLQKSGQSPQLLIYLGSNRASGVPDRFSGSGSGTDFTLKISRVEAEDVGFYYCMQALQTPYTFGQGTKLEIK
notes: also called anti-IL-4R antibody mAb1; REGN668/SAR231893
